Assay [1] addresses H77C 1a recombinant E1E2 (hepatitis C virus genotype 1a, isolate H77C) (UniProt P27958).
The target is the same in assay [2]. This is another data set of the same source.
The target of the next assay is HMAb HC-11. The assay can be described thus: global alanine scanning epitope mapping. The settings on record: antibody at 1 μg/ml.
The next assay addresses HMAb 212.1.1. Kind of assay: global alanine scanning epitope mapping. The settings on record: antibody at 2 μg/ml.
The target in a further assay is HMAb CBH-7. The assay can be described thus: global alanine scanning epitope mapping. The settings on record: antibody at 1 μg/ml.
For the next assay, the target named is HMAb CBH-5. Kind of assay: global alanine scanning epitope mapping. To be noted: antibody at 1 μg/ml.
For another assay, the target named is HC84.26. The assay can be described thus: global alanine scanning epitope mapping. The settings on record: antibody at 1 μg/ml.
Another assay addresses HC-1. Kind of assay: global alanine scanning epitope mapping. To be noted: antibody at 1 μg/ml.
Assay [3] addresses T1, complex of Hepatitis C virus genotype 1a P27958 (hepatitis C virus genotype 1a, isolate …, UniProt P27958).
T1 construct: envelope glycoprotein E1, cut product of the HCV polyprotein, genotype 1a isolate H77C; envelope glycoprotein E2, cut product of the HCV polyprotein, genotype 1a isolate H77C; residue numbers count on the H77C polyprotein; also called wt 1a H77C E1E2; 1a H77C E2
The assay can be described thus: ELISA; blocking of E2 binding to CD81-LEL: HMAb at 10 μg/ml pre-incubated with H77C 1a E1E2 lysate (1 μg/ml E2) for 20 min at 4°C, then added to CD81-LEL wells. To be noted: one partner purified.

From PMC6542541, “Broadly neutralizing antibodies from an individual that naturally cleared multiple hepatitis C virus infections uncover molecular determinants for E2 targeting and vaccine design” (PLoS Pathogens, 2019) come the findings set out here.

As for HMAb 212.1.1 (antibody), in [1], the % neutralization of H77 (1a) Core-NS2 HCVcc at 25 μg/ml (FFU reduction) was 41% and the IC50 of neutralization of H77 (1a) Core-NS2 HCVcc (FFU reduction) came to 36 µg/mL. Moreover, the % neutralization of 1a H77C HCVpp at 20 μg/ml in assay [2] worked out at 89%.
In the case of “H77C 1a recombinant E1E2 (from UniProt P27958) L427A”, the percent of parent with HMAb HC-11 was 26 % WT; with HMAb 212.1.1 it was 3 % WT; with HMAb CBH-7, 370 % WT; with HMAb CBH-5, 6 % WT; in the assay with HC84.26, 100 % WT; with HC-1 it was 51 % WT.
For the molecule “H77C 1a recombinant E1E2 (from UniProt P27958) R639A”, the percent of parent with HMAb HC-11 was determined as 76 % WT; with HMAb 212.1.1, 88 % WT; with HMAb CBH-7, 86 % WT; with HMAb CBH-5, 48 % WT; with HC84.26, 87 % WT; with HC-1, 100 % WT.
In the case of “H77C 1a recombinant E1E2 (from UniProt P27958) L433A”, the percent of parent amounted to 103 % WT with HMAb HC-11; 2 % WT in the assay with HMAb 212.1.1; 103 % WT in the assay with HMAb CBH-7; 128 % WT with HMAb CBH-5; 122 % WT with HC84.26; 97 % WT with HC-1.

B1: HMAb HC-11 (antibody, V domains shown)
VH: EVQLVESGAEVKKPGSSVKVSCKASGATFSSFIFSWVRQAPGQGPEWMGGIIPMFGTAKYAPRLQGRVTITADESTSTAYMDLSSLRFEDTAVYYCAMEVPGFCRGGSCSGYMDVWGKGTLVTVSP
VL: AAVLTQSPGTLSLSPGERATLSCRASHSVSSSNLAWYQQKPGQAPRLLMYGASRRATGIPDRFSGSGSGTDFTLTISRLEPEDFAVYYCQQYGSSPITFGQGTRLDIK
notes: germline IGHV1-69, 92% nucleotide identity; heavy chain CDR3; germline kappa 3-20, 96% nucleotide identity; light chain CDR3; also called domain B HMAb
As to B1, the binding result in assay [3] is recorded as “binds”.
